The results in this text go back to paper PMC3520712, “Arabidopsis mutant sk156 reveals complex regulation of SPL15 in a miR156-controlled gene network”.

The target in the series is T1, SPL15 SBP domain (His-tagged) (Arabidopsis thaliana, UniProt Q9M2Q6 50-139).
T1 sequence: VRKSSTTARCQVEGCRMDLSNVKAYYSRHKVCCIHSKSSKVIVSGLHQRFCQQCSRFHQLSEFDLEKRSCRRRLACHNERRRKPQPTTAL
The experiment in a line: EMSA; ~500 ng protein, ~20 fmol DNA; displaced by 100-fold unlabeled N1; 10 mM Tris pH 7.5, 50 mM KCl, 5 mM MgCl (so in the source), 5 mM DTT, 2.5% glycerol, 0.05% NP-40, 25 C 30 min; 7.5% gel in 0.5x TBE at 4 C. To be noted: protein: recombinant; tags: His tag (pET28a, BamHI/SalI; 16.3 kD fusion); label: digoxigenin (DIG Gel Shift kit); blunt.

B1: miR156b promoter 46-mer (R156b-bx1) (dsDNA)
DNA 1: TAATTAGTGAAACTGTACAATGTACAATGTACCAATGCCATTAATG
DNA 2: CATTAATGGCATTGGTACATTGTACATTGTACAGTTTCACTAATTA
For the molecule B1, the binding result is given as “binds”.
